Data reported in patent US20170369576A1 (UBI US, published 2017).
Values joined by “and” are separate entries in the source; they are usually repeats but may differ in a detail not shown here. Equal entries are not always repeated.

Experiments:
[1] = target: T1, human CD4, membrane-bound on cells (HPB-ALL cells, blood/PBMC CD4+ T cells, assay target cells) (human, UniProt P01730 26-458); test: FACS, fresh blood CD4+ T cells of subject M2; bound dB4 detected by goat anti-hIgG-FITC
T1 construct: whole, on cells; Target on human HPB-ALL T-leukemic cells, human blood CD4+ T lymphocytes and CD4+ indicator cells of the neutralisation assays; also called CD4 receptor; surface CD4
Description: (§1) The samples were calibrated with reference beads for fluorescence reading.

[2] = target: T1, human CD4, membrane-bound on cells …; test: binding to human CD4 positive T cells (FIG. 21)
[3] = target: T1, human CD4, membrane-bound on cells …; test: FACS, fresh blood CD4+ T cells, mean of six subjects; free CD4 sites left by dB4 detected by dB4C7-Alexa (250 ng/mL)
[4] = target: T1, human CD4, membrane-bound on cells …; test: saturation binding to HPB-ALL cells on ice 1 h; free antibody by ELISA, bound by subtraction, curve fit; exp. 3
Protocol: (§2) The resultant saturating free-vs.-bound concentration profiles were analyzed on SigmaPlot by curve-fitting based on the equation, [B]=Bmax·{[F]/([F]+Kd)}, where the respective [B] and [F] stand for the bound and free concentrations.
(§3) The binding study was conducted at cold and/or under 0.05% azide to avoid a potential endocytosis of the ligand-receptor complexes. Incubation at room temperature or 37° C. could allow a reaction plateau to be reached sooner. […] The supernatants were collected for determination by ELISA of the free drug concentrations, and the bound fractions were obtained by subtraction from the total.

[5] = target: T1, human CD4, membrane-bound on cells …; test: FACS direct binding to HPB-ALL cells, on ice 1 h, goat F(ab)2 anti-huIgG Fc-FITC; EC50 by MFI, exp. 2
Protocol: (§4) On V-bottomed microplates, aliquots of 2×10⁵ cells in 0.1 mL per well were added, centrifuged, and liquid discarded. […] This step was repeated one more time. The cells from the three incubations (passages) were investigated. […] The cells were washed once and the liquid discarded after centrifugation. To each well, aliquots of 200 μL of binding buffer were added and transferred to microdilution tubes for flow cytometric analysis. The binding intensity (mean fluorescence intensity, MFI), based on an inlet of 5,000 cells per sample, was read on FACS.
(§5) The absolute MFI values were also normalized to % MFI for purpose of between-passage comparison.

[6] = target: T1, human CD4, membrane-bound on cells …; test: FACS, fresh blood CD4+ T cells of subject F3; free CD4 sites left by dB4 detected by dB4C7-Alexa (250 ng/mL)
[7] = target: T2, recombinant soluble CD4 (UniProt P01730 26-390, limits assumed); test: competition ELISA on coated sCD4/p2704a mixture; inhibition of B4-biotin (10 µg/mL)
T2 construct: also called sCD4; rsCD4

[8] = target: T1, human CD4, membrane-bound on cells …; test: FACS, fresh blood CD4+ T cells of subject F1; bound dB4 detected by goat anti-hIgG-FITC
Description: as §1

[9] = target: T1, human CD4, membrane-bound on cells …; test: FACS direct binding to HPB-ALL cells, on ice 1 h, goat F(ab)2 anti-huIgG Fc-FITC; EC50 by MFI, exp. 3
Protocol: as §4, §5

[10] = target: T1, human CD4, membrane-bound on cells …; test: FACS, fresh blood CD4+ T cells of subject F3; bound dB4 detected by goat anti-hIgG-FITC
Description: as §1

[11] = target: T1, human CD4, membrane-bound on cells …; test: FACS direct binding to HPB-ALL cells, on ice 1 h, goat F(ab)2 anti-huIgG Fc-FITC; EC50 by MFI, mean of 3
Protocol: as §4, §5

[12] = target: T1, human CD4, membrane-bound on cells …; test: comparison of IC50 values of FACS competition (HPB-ALL) and ELISA competition (sCD4/p2704a)
Protocol: (§6) On V-bottomed microplates, aliquots of 2×10⁵ cells in 0.1 mL per well were added, centrifuged, and liquid discarded. […] The cells were washed once and the liquid discarded after centrifugation. To each well, aliquots of 200 μL of binding buffer were added and transferred to microdilution tubes for flow cytometric analysis. The binding intensity (mean fluorescence intensity, MFI), based on an inlet of 5,000 cells per sample, was read on FACS.

[13] = target: T1, human CD4, membrane-bound on cells …; test: competition FACS on HPB-ALL cells; inhibition of dB4-Alexa (250 ng/mL)
Protocol: as §6

[14] = target: T1, human CD4, membrane-bound on cells …; test: FACS, fresh blood CD4+ T cells of subject M2; free CD4 sites left by dB4 detected by dB4C7-Alexa (250 ng/mL)
[15] = target: T1, human CD4, membrane-bound on cells …; test: FACS, fresh blood CD4+ T cells of subject F1; free CD4 sites left by dB4 detected by dB4C7-Alexa (250 ng/mL)
[16] = target: T1, human CD4, membrane-bound on cells …; test: saturation binding to HPB-ALL cells on ice 1 h; free antibody by ELISA, bound by subtraction, curve fit; exp. 2
Protocol: as §2, §3

[17] = target: T1, human CD4, membrane-bound on cells …; test: FACS, fresh blood CD4+ T cells of subject M3; free CD4 sites left by dB4 detected by dB4C7-Alexa (250 ng/mL)
[18] = target: T3, baboon CD4 on CD4 positive T cells (baboon (Papio species), UniProt A0A096MWA4 26-457); test: binding to baboon CD4 positive T cells (FIG. 21)
T3 construct: also called baboon CD4+ T cells

[19] = target: T1, human CD4, membrane-bound on cells …; test: FACS direct binding to HPB-ALL cells, on ice 1 h, goat F(ab)2 anti-huIgG Fc-FITC; EC50 by % MFI, exp. 3
Protocol: as §4, §5

T3 sequence (A0A096MWA4 entry or part of it limits assumed, form in doubt): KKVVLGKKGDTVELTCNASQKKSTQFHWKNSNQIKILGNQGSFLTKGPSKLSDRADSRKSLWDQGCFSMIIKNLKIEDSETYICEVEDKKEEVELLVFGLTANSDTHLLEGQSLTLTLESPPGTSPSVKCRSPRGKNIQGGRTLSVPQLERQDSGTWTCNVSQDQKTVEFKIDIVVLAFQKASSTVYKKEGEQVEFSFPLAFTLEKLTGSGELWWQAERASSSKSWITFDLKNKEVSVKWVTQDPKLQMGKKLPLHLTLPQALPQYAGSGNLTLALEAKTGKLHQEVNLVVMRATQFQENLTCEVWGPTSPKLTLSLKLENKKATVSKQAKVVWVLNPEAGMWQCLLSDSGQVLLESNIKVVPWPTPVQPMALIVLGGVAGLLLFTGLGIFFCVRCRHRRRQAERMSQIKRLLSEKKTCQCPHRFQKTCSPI

B1: mAb dB4C7 (human deimmunized, Fc-aglycosylated IgG1 derived from murine mAb B4, expressed by clone 7) (antibody, V domains shown)
VH: QVQLVQSGPELKKPGASVKVSCKASGYTFTDYVIHWVKQATGQGLEWIGEIYPGSGSAYSNAKFKDRVTMTADKSSNTAYMELSSLTSDDTAVYFCARRGNGTGFAYWGQGTLVTVSS
VL: DIVLTQSPASLAVSLGQRATITCKAGQSVDYDGDSYMNWYQQKPGQPPKLLIYVASNLESGIPARFSGSGSGTDFTLNIHPVEENDAATYYCQQSYKDPLTFGQGTKLEIKR
modifications: N-glycosylated at Asn101 in the Fv; Fc N-glycosylation site removed (N298H)
notes: treated as one molecule; also called deimmunized B4
[1]
  EC50: 4.2 ng/mL
[2]
  EC50: 330 ng/mL
[3]
  EC50: 4.7 ng/mL
[4]
  Kd: 0.0047 µg/mL and 0.031 nM
[5]
  EC50: 43.7 ng/mL
[6]
  EC50: 4.3 ng/mL
[7]
  IC50: 8190 ng/mL
[8]
  EC50: 4.7 ng/mL
[9]
  EC50: 40.7 ng/mL
[10]
  EC50: 3.7 ng/mL
[11]
  EC50: 42.2 ng/mL
[12]
  fold binding affinity, CD4-positive T cells against sCD4: > 40 fold
[13]
  IC50: 0.197 µg/mL and 1.8 nM
[14]
  EC50: 4.6 ng/mL
[15]
  EC50: 4.3 ng/mL
[16]
  Kd: 0.0121 µg/mL and 0.081 nM
[17]
  EC50: 3.3 ng/mL
[18]
  EC50: 290 ng/mL
[19]
  EC50: 40.7 ng/mL
